# B1: short DNA probe (Fig 2E) (mixed)
# DNA: CGCGCCAACAGCGACATCAAATTTGTCGCC
# Key:
# [1] = biological target: RNA polymerase core enzyme (alpha2 beta beta' omega);RapA (Escherichia coli;Escherichia coli, UniProt P0A7Z4;P0A8V2;P0A8T7;P0A800;P60240 1-329;1-1342;1-1407;1-91;1-968, |); test: EMSA; 160 nM core, RapA titration; shifts to single-copy core-RapA-DNA complex; EMSA buffer D (1x): 20 mM Tris-acetate, 10 mM Mg acetate, 50 mM K acetate, 1 mM DTT, pH 7.8; native PAGE in 0.5x TBE running buffer; 37 C for the tac and slyD template reactions, otherwise temperature not stated; settings: protein: native;recombinant; tags: ;; chain copies: 2;1;1;1;1; label: 5'-32P
# [2] = biological target: RNA polymerase core enzyme (alpha2 beta beta' omega);NusA (Escherichia coli;Escherichia coli, UniProt P0A7Z4;P0A8V2;P0A8T7;P0A800;P0AFF6 1-329;1-1342;1-1407;1-91;1-495, |); test: EMSA; 160 nM core, NusA titration; tandem core-DNA complex dissociated to single copy; EMSA buffer D (1x): 20 mM Tris-acetate, 10 mM Mg acetate, 50 mM K acetate, 1 mM DTT, pH 7.8; native PAGE in 0.5x TBE running buffer; 37 C for the tac and slyD template reactions, otherwise temperature not stated; settings: protein: native;recombinant; tags: ;; chain copies: 2;1;1;1;1; label: 5'-32P
binder,measurement,setting,value
B1,binding result,[1],binds
same,binding result,[2],binds

# From paper PMC3080401, “Oligomerization of the E. coli Core RNA Polymerase: Formation of (α2ββ'ω)2–DNA Complexes and Regulation of the Oligomerization by Auxiliary Subunits”
